The supplement of paper PMC10065799, “High-throughput profiling of sequence recognition by tyrosine kinases and SH2 domains using bacterial peptide display” (eLife, 2023)

Tested on: AncSZ;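 note: 11-residue human phosphosite peptides and single-mutation variants displayed on the E. coli surface, counted by deep sequencing, each peptide's frequency after selection divided by its frequency in the unselected input library; frequency after pTyr selection over input frequency; kinase dosed for 20-30% of maximal phosphorylation in three min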
Assay: phosphorylation enrichment, bacterial display (enrichment ratio); higher = better substrate or ligand; peptides without Tyr show the background

In order of rising phosphorylation enrichment:
1. KHASTYREAAT [DEAF1_Y483]  0.425
2. PPQFSYGLQTQ [SRA1_Y35]  0.466
3. LLKAGYQGVLR [TTPA_Y100_H101Q]  0.502
4. PVQDAYQKVVA [HBB_Y131_A129D]  0.526
5. FLAATYPTLGQ [NF1_Y2508_V2511L_YF]  0.572
6. ATHSGYRLNDF [CLDN14_Y233_YF]  0.587
7. EFGEVYKGTLK [EPHA2_Y628_M631T]  0.603
8. SVESPYGSVTF [NDRG2_Y47_T45S]  0.662
9. TQTPPYVKKHP [LARP1B_Y457]  0.677
10. EIRTQYEAMAS [GFAP_Y242]  0.691
11. VPVPGYTKVPE [SPRR3_Y146_L149V]  0.776
12. ASENVYVNIAH [CTSC_Y150]  0.881
13. SVVVRYEPPEV [TP53_Y220_P219R]  0.892
14. YIGVTYKNKED [PDGFRA_Y993_E996K]  0.896
15. PASLSYLSFEG [EXOSC3_Y143]  0.942
16. WGLRSYFETSK [MAGED2_Y448_YF]  0.967
17. DPYHVYIKNRV [KCNE3_Y95]  0.973
18. GIVTGYLVLKE [DNMT3B_Y588_A585V]  1.07
19. KWELRYMHSRV [ABCD1_Y281_G277W]  1.09
20. EFLRNYFTDKA [DSG2_Y775]  1.09
21. GMKIVYVYVKK [DNAI2_Y5_E2K]  1.11
22. TVLEPYADPFF [ZC3H18_Y367_YF]  1.16
23. TESALYGCTVV [KIAA1804_Y724_L729V]  1.18
24. GKVFIYHGSSL [ITGA7_Y458]  1.19
25. QRPFVYFFSFL [PTEN_Y176_R173P_YF]  1.23
26. DLQDENDFKCK [STAT1_Y170_Y170N]  1.42
27. ADLTEYLSTHF [UQCRC1_Y219_YF]  1.43
28. QMVGMYAFSFM [AVPR2_Y124_S126F_YF]  1.5
29. QQLDEYQKLLD [LMNA_Y359_E361K]  1.53
30. KGEDFYCVTYH [FHL1_Y149_C153Y]  1.84
31. FEDTLYTVLHR [UNC13D_Y61_A59T_YF]  2.45
32. LRVKMYNFLRS [ADGRG7_Y760]  2.63
33. HLEKKYVRRDS [CSF1R_Y708]  2.92

Biological target: SHP2-C SH2;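 note: peptide library displayed on the E. coli surface as eCPX fusions, selected cells deep-sequenced, score is each peptide's frequency after selection divided by its frequency in the input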
Assay: SH2 binding enrichment of the phosphorylated peptide, bacterial display (enrichment ratio); higher = better substrate or ligand; peptides without Tyr show the background

In order of falling SH2 binding enrichment:
1. ASENVYVNIAH [CTSC_Y150]  5.86
2. WGLRSYFETSK [MAGED2_Y448_YF]  1.53
3. YIGVTYKNKED [PDGFRA_Y993_E996K]  1.39
4. GIVTGYLVLKE [DNMT3B_Y588_A585V]  1.31
5. LLKAGYQGVLR [TTPA_Y100_H101Q]  1.3
6. HLEKKYVRRDS [CSF1R_Y708]  1.25
7. EIRTQYEAMAS [GFAP_Y242]  1.14
8. QRPFVYFFSFL [PTEN_Y176_R173P_YF]  1.13
9. PASLSYLSFEG [EXOSC3_Y143]  1.11
10. EFLRNYFTDKA [DSG2_Y775]  1.03
11. PVQDAYQKVVA [HBB_Y131_A129D]  0.956
12. KWELRYMHSRV [ABCD1_Y281_G277W]  0.878
13. TQTPPYVKKHP [LARP1B_Y457]  0.821
14. QMVGMYAFSFM [AVPR2_Y124_S126F_YF]  0.817
15. FLAATYPTLGQ [NF1_Y2508_V2511L_YF]  0.814
16. SVVVRYEPPEV [TP53_Y220_P219R]  0.775
17. DPYHVYIKNRV [KCNE3_Y95]  0.762
18. KHASTYREAAT [DEAF1_Y483]  0.755
19. GMKIVYVYVKK [DNAI2_Y5_E2K]  0.741
20. QQLDEYQKLLD [LMNA_Y359_E361K]  0.724
21. GKVFIYHGSSL [ITGA7_Y458]  0.707
22. SVESPYGSVTF [NDRG2_Y47_T45S]  0.688
23. TVLEPYADPFF [ZC3H18_Y367_YF]  0.673
24. TESALYGCTVV [KIAA1804_Y724_L729V]  0.657
25. DLQDENDFKCK [STAT1_Y170_Y170N]  0.642
26. LRVKMYNFLRS [ADGRG7_Y760]  0.623
27. VPVPGYTKVPE [SPRR3_Y146_L149V]  0.581
28. PPQFSYGLQTQ [SRA1_Y35]  0.544
29. ATHSGYRLNDF [CLDN14_Y233_YF]  0.542
30. ADLTEYLSTHF [UQCRC1_Y219_YF]  0.539
31. KGEDFYCVTYH [FHL1_Y149_C153Y]  0.484
32. FEDTLYTVLHR [UNC13D_Y61_A59T_YF]  0.426
33. EFGEVYKGTLK [EPHA2_Y628_M631T]  0.393
